T1: human 2B4-Fc fusion protein (human, UniProt Q9BZW8 22-229)
T1 construct: also called h2B4-Fc; h2B4
T1 sequence: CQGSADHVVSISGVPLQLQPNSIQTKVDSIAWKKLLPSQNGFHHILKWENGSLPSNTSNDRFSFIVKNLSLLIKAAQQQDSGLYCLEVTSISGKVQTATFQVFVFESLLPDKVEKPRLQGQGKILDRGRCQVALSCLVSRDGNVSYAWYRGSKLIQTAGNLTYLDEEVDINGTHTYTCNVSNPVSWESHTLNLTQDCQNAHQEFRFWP

B1: A43-Fc fusion protein (Fc fusion)
chain: VNIVNALVGGNITLNISESLPENVREITWFCTYDQKIADWDVKRLKYFDNKFKGRVRLDSQSGALYLSRVQKEDANIYIMRVLKDTMFEQDWKIRLQVFDEVDTPNITLVNTTLISDTCYVNFSCSHHDSLCYTSNENCTWYHFSQNITKTPPWNHSASSNSCYTCEFKNPVHRKNITMCISGCGQT
modifications: Wild-type viral ectodomain. The human IgG1 Fc carrier (dimerising) and CD33 leader are left out. The C-terminal limit follows from the printed membrane-proximal region 214-225, so Ig2 ends at …
B2: A. trivirgatus CD48-Fc fusion protein (Fc fusion)
chain: TSIQGNSVDVINAISGGNVTLNISESLPENVREITWFCTYHQKIADWDVKRLKYFDNKFKGRVRLDYQSGALYISKIQKEDANIYIMRVLKETMYEQEWKIRLQVFDPVPKPDIKIEKTAKVEDDCYLKLSCVIPDESVNYTWYGDKEPFPKEFQSGVLETTLKSQDYSRCYTCQVSNPVSSKNDTVCFS
modifications: biotin (biotinylated host CD48-Fc in the blocking ELISA)

Legend:
[1] = target: T1, human 2B4-Fc fusion protein; experiment: SPR; details: both partners purified
[2] = target: T2, A. trivirgatus 2B4-Fc fusion protein (Aotus trivirgatus); experiment: SPR; details: both partners purified
T2 construct: also called host 2B4-Fc; aoCD244-Fc

Binder | Kd [1] [nM] | fold higher affinity than hCD48 [1] [fold] | fold slower dissociation than hCD48 [1] [fold] | koff [1] [s⁻¹] | kon [1] [M⁻¹ s⁻¹] | Kd [2] [nM] | fold slower dissociation than host CD48 [2] [fold] | koff [2] [s⁻¹] | kon [2] [M⁻¹ s⁻¹]
B1 | 3.6 | 6 | 55 | 0.000405 | 169000 | 1.3 | 2.6 | 0.000188 | 116000
B2 |  |  |  |  |  | 3.3 |  |  | 
